Measured values reported in article PMC7196523.

B1: TCR clonotype 1 specific for MCPyV LT AA 95–103 (subject 1233) (peptide)
chain 1: CAVRALGNAGNMLTF
chain 2: CASSPNPQGANMDTQYF
B2: TCR clonotype 1 specific for MCPyV CT AA 32–40 (subject 1233) (peptide)
chain 1: CVVNGNNNDMRF
chain 2: CASSQGFGANVLTF
B3: TCR clonotype 2 specific for MCPyV CT AA 32–40 (subject 1233) (peptide)
chain 1: CVVNNNNNDMRF
chain 2: CASVSGQGVSPLHF
B4: TCR clonotype 3 specific for MCPyV CT AA 32–40 (subject 1233) (peptide)
chain 1: CAGARNDYKLSF
chain 2: CATSRDGAGLVNQPQHF

Assays:
[1] = target: MCPyV large T antigen (LT) peptide on HLA-A*03:01 (human); test: IFNγ ELISA; conditions: chains alpha TRAV3*00 CDR3:beta TRBV4-3*00 CDR3
[2] = target: MCPyV common T antigen (CT; shared N-terminal domain of LT and ST) peptide on HLA-A*03:01 (human); test: IFNγ ELISA
[3] = chains alpha TRAV12-1*00 CDR3:beta TRBV19*00 CDR3

Binder | EC50 of peptide [2, 3] [µg/mL] | further results
B1 | – | EC50 of peptide [1]: 0.0019 µg/mL
B2 | 0.0076 | –
B3 | 0.0236 | –
B4 | – | EC50 of peptide ([2]; chains alpha TRAV25*00 CDR3:beta TRBV15*00 CDR3): 0.0234 µg/mL
